We go through three molecules from patent US20240287527, “VIRAL PROTEIN […] […] AND METHODS OF USE IN DIAGNOSTICS, […] PURPOSES” (AYASS BIOSCIENCE LLC, published 2024).

Series [1] deals with SARS-CoV-2 full-length S protein on lentiviral VLP (SARS-CoV-2, UniProt P0DTC2 P0DTC2:14-1273). Briefly: cell_activity. The settings on record: protein: virion, tags: GenTarget VLP001, GFP reporter VLP, chain copies: 3 (inferred).
The next series concerns the target ACE2/ACEH (Homo sapiens, UniProt Q9BYF1 Q9BYF1:18-740). Briefly: SPR. Particulars: tags: Fc-tag, ACRO Biosystems AC2-H5257; chain copies: 2.
For series [2], the target named is SARS-CoV-2 nucleocapsid protein (SARS-CoV-2, UniProt P0DTC9 P0DTC9:1-419). Briefly: SPR. The settings on record: tags: AcroBiosystems C5227 / RayBiotech 230-01104.

B1: AYA2012004_L-M2 (structured_DNA)
DNA 1: TTTTTTAGGGAAGAGAAGGACAATGATTTTGGGCGGGTTGA
DNA 2: AAAAATAGGGAAGAGAAGGACAATGATTTTGGGCGGGTTGA
On to B1, for which the activity in series [1] was about 60 % inhibition. For the same molecule, the binding result (in the series with ACE2/ACEH; in series [2]) was “no binding” each time.
TAGGGAAGAGAAGGACAATGATTTTGGGCGGGTTGA (ssDNA) [AYA2012004_L-M1] registered an activity in series [1] of about 50 % inhibition. Also, the binding result (with ACE2/ACEH; in series [2]) was “no binding” each time.

B2: SB3L (AYA2012004_L) (ssDNA)
DNA: TAGGGAAGAGAAGGACAATGATTTTGGGCGGGTTGAGGTGGGGGAGGAGGAGGTAGTTAGAGTTGACTAGTACATGACCACTTGA
With B2, the activity in series [1] (label: 5'-biotin, two hairpins (predicted)) was about 70 % inhibition. The binding result (in the series with ACE2/ACEH; in series [2]) was “no binding” throughout.
